Data published in PMC8864007, “Evaluation of an ^131I-labeled HER2-specific single domain antibody fragment for the radiopharmaceutical therapy of HER2-expressing cancers” (Scientific Reports, 2022).
“And” between values parts separate entries of the source, which are not always exact repeats. Equal values may be shown once.

Experiments:
HER2-Fc protein = biological target: T1, HER2-Fc protein (Homo sapiens, UniProt P04626); test: SPR; Biacore 3000 System; binding to HER2-Fc protein; which partner was immobilised is not stated; settings: both partners purified
T1 construct: human epidermal growth factor receptor type 2 (HER2), fused to Fc; Probably the extracellular domain of HER2; The source may stand in Supplementary Methods

murine HER2 = biological target: T2, murine HER2 (Mus musculus, UniProt P70424); test: ELISA; affinity, specificity and species cross-reactivity by ELISA; details in Supplementary Materials
T2 construct: murine HER2

[1] = biological target: T3, human epidermal growth factor receptor type 2 (HER2) on HER2-expressing carcinoma cells (Homo sapiens, endogenous on SKOV-3 cells, UniProt P04626); test: radioligand binding; cell-based affinity assay on HER2-expressing SKOV-3 cells; nonspecific binding measured with a 100-fold molar excess of trastuzumab; three therapy-level batches; settings: one partner purified
T3 construct: human epidermal growth factor receptor type 2 (HER2), endogenous on SKOV-3 and BT474 cells; The assay tells which cell line was used; also called HER2 receptor; source: endogenous, on SKOV-3 human ovarian carcinoma cells and on BT474 human breast carcinoma cells

T2 sequence (P70424 23-1256): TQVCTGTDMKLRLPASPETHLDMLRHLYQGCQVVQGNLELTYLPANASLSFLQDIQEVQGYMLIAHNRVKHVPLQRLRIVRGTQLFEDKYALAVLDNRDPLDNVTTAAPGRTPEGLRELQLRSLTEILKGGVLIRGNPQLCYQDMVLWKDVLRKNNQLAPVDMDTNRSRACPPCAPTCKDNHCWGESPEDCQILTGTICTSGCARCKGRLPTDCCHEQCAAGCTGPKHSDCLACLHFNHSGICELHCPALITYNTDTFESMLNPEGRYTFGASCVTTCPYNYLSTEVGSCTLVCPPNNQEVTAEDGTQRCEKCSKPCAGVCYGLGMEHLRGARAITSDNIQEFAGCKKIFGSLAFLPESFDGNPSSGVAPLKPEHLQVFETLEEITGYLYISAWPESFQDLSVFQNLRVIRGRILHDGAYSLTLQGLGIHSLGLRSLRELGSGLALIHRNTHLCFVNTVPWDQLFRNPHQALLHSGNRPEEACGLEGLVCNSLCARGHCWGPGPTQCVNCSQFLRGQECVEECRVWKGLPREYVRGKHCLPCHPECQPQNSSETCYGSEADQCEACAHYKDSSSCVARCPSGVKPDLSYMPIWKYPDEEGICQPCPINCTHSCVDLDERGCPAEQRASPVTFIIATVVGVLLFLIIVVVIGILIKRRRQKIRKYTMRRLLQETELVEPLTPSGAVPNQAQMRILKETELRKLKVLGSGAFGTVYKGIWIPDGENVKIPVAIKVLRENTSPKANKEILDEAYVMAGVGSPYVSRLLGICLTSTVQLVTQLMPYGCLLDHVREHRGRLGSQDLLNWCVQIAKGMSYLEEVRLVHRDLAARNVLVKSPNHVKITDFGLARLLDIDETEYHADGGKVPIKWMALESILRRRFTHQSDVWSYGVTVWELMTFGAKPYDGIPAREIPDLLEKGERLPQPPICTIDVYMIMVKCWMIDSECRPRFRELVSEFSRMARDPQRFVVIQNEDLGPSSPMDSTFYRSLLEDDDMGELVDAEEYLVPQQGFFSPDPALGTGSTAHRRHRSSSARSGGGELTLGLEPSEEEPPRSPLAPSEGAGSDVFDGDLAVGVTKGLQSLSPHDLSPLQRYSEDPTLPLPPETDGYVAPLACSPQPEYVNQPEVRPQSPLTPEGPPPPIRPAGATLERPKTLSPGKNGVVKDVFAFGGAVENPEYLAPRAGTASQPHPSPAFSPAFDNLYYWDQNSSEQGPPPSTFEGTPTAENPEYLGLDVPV

B1: VHH_1028 (VHH)
VHH: EVQLVESGGGLVQAGGSLRLSCAASGITFSINTMGWYRQAPGKQRELVALISSIGDTYYADSVRGRFTISRDNAKNTVYLQMNSLKPEDTAVYYCKRFRTAAQGTDYWGQGTQVTVSS
notes: Measured mass 12,844.0 Da (theoretical 12,844.2 Da); Engineered to have no lysine in its CDR regions; also called anti-HER2 VHH_1028; sdAb VHH_1028; source: developed and provided by Cereius, Inc; production and purification in Supplementary Materials
B1 was tested, and the Kd (HER2-Fc protein) was 0.21 nM and the binding result (murine HER2) was “no binding”.

B2: iso-[^131I]SGMIB-VHH_1028 (VHH)
VHH: B1 VHH
notes: as the chain of m1; source: VHH_1028 conjugated with iso-[^131I]SGMIB, isolated by gel filtration (PD-10)
B2 was tested, and the Kd [1] was 1.5 nM and 2.9 nM and 2.6 nM.

B3: iso-SGMIB-VHH_1028 (VHH)
VHH: B1 VHH
notes: as the chain of m1; Measured mass 13,147.6 Da (calculated 13,146.4 Da); also called unlabeled iso-SGMIB-VHH_1028; 1:1 iso-SGMIB-VHH_1028 conjugate; source: VHH_1028 reacted with iso-SGMIB, 1:1 conjugate isolated by HIC-HPLC
With B3 the Kd (HER2-Fc protein) was 0.21 nM.
